Reference: article PMC8776730 (Nature Communications, 2022)

Assay: Secondary structure proportions from CD spectra
Assay type: physicochemical
Settings: calculated by Reed's Reference based on CD spectra; DI water
Source text: To further evaluate the assembled structures, the corresponding circular dichroism (CD), Fourier transform infrared (FTIR) spectroscopy, and wide-angle X-ray scattering (WAXS) spectroscopy were applied. […] The FITR spectra of M1 and M3 in Fig. 3b observed the intermolecular interactions. The peaks at 1629 cm^−1, 1675 cm^−1, and 1698 cm^–1 of M3 indicated anti-parallel β-sheet structure (represent by green arrow heads), peaks at 1648 cm^−1 and 1663 cm^−1 indicated parallel beta sheet structure (represent by blue arrow heads), the existence of 1654 cm^−1 indicate α-Helix structure in M1 which verified the results deduced by CD in Fig. 3a[29],[30]. […] As a homologous sequence with amyloid β-protein (Aβ), the self-assembly motif with peptide sequence of KLVFFGCG had similar aggregation kinetics to (Aβ)42 peptide, which occurred via dynamic growth from oligomers to amyloid fibrils. The aggregation started from the freshly isolated monomers of R-M1, and precipitates were separated in 1 min and 1 h, respectively. […] After analyzed the CD spectra of M1, M3, and R-M1 (Fig. 3e), it can be clearly seen that the main secondary conformation of M1 was Random, the M3 was hybrid of Helix and Beta, and the R-M1 was Beta (Supplementary Table 1). All the results confirmed the conclusion from FTIR spectra. […] The dynamic growth procedure was like the 8-anilino-1-naphthalenesulfonic acid (ANS) stained curve (Supplementary Fig. 12). As known, ANS was sensitive to hydrophobic interaction. When R-M1 were in the initial oligomer, the fluorescence intensity of ANS increased due to the enhanced hydrophobicity. When the molecules were elongated and stacked in higher ordered nanofibrils, the blue shift of ANS in the β-sheet structures reduced the fluorescence. The molecular packing mode of well-ordered fibrils of R-M1 in Fig. 3g observed a weak reflection at 4.9 Å as laminates space and a strong broad reflection at 10.3 Å as sheet space, which was illustrated in the inserted figure. The fibril morphology was characterized by transmission electron microscopy (TEM) imaging (Fig. 3f). The statistical calculation of the fiber diameter in TEM images was 5.0 ± 0.4 nm (Supplementary Fig. 13), which was corresponded to the theoretical calculated two molecules length of R-M1. We assumed that the nanofibers were assembled by twisted R-M1 molecules centered on self-assembly motif.
The secondary structures of M1, M3 and R-M1 were verified by CD spectroscopy (JASCO Corporation, JC-1500) at room temperature with a cell path length of 1 cm. M1, […] and R-M1 were diluted to 100 μM with deionized water at 25 °C and allowed to stand for 12 h for complete assembly. Detail parameter setting were CD scale:200 mdeg/1.0Dod, measure range: 260~190 nm, scanning speed: 500 nm/min, bandwidth: 1.00 nm, and data pitch: 0.5 nm. All spectra were the average of three measurements.
Supplementary Table 1∣ Secondary structure proportions ofM1, M3 and R-M1 calculated by Reed’s Reference based on […]

Row | Substance | Secondary structure proportion: Beta [%] | Secondary structure proportion: Helix [%] | Secondary structure proportion: Random [%] | Secondary structure proportion: Turn [%]
1 | mPEG-GPAKLVFFGCGRGD [M3, the non-labeling molecule of M1 (no IR783)] | 38.7 | 45 | 16.3 | 0
2 | mPEG-GPAKLVFFGC(IR783)GRGD [M1] | 32.2 | 0 | 66.1 | 1.7
